From PMC13397619

B1: NLV2 TCR alpha chain (CDR3α only) (parent)
chain: AGPMKTSYDKVI
partner: MLVPMVATV

Variants of: B1
Experiment: T-Switch: Jurkat TCRβ−/− cells expressing a CDR3 saturation-mutagenesis library, stained with two peptide-HLA-A*02:01 tetramers (original and novel peptide) plus anti-CD3, FACS-sorted into four gates, gDNA sequenced
Conditions: with HLA-A*02:01 with peptide … (NLV 3-1, the novel peptide), tetramers 1 µg/mL, 30 min on ice, SP, DP and SW gates expanded about 10 days between rounds ('two to three rounds of selection' in the Methods), gate SW: higher = more of the variant in the gate that binds the novel peptide and not the original one = switched binding. Fold enrichment of the CDR3 variant in one FACS gate of a two-tetramer stain, unresolved parent, parent is a CDR3 fragment, scale: fold enrichment, numbering: sequential-on-construct, sequence starts at 1

| Variant | enrichment |
| --- | --- |
| […] (CDR3 as printed); G2A derived by comparing it with the table's wild-type CDR3 AGPMKTSYDKVI | 0 |
| […] (CDR3 as printed); A1L derived by comparing it with the table's wild-type CDR3 AGPMKTSYDKVI | 0 |
| […] (CDR3 as printed); D9A derived by comparing it with the table's wild-type CDR3 AGPMKTSYDKVI | 0 |
| […] (CDR3 as printed); Y8W derived by comparing it with the table's wild-type CDR3 AGPMKTSYDKVI | 0 |
| […] (CDR3 as printed); M4S derived by comparing it with the table's wild-type CDR3 AGPMKTSYDKVI | 0 |
| […] (CDR3 as printed); T6M derived by comparing it with the table's wild-type CDR3 AGPMKTSYDKVI | 0 |
| […] (CDR3 as printed); D9W derived by comparing it with the table's wild-type CDR3 AGPMKTSYDKVI | 0 |
| […] (CDR3 as printed); P3Q derived by comparing it with the table's wild-type CDR3 AGPMKTSYDKVI | 0 |
| […] (CDR3 as printed); K5D derived by comparing it with the table's wild-type CDR3 AGPMKTSYDKVI | 0 |
| […] (CDR3 as printed); I12M derived by comparing it with the table's wild-type CDR3 AGPMKTSYDKVI | 0 |
| […] (CDR3 as printed); S7K derived by comparing it with the table's wild-type CDR3 AGPMKTSYDKVI | 0 |
| […] (CDR3 as printed); Y8N derived by comparing it with the table's wild-type CDR3 AGPMKTSYDKVI | 0 |
| […] (CDR3 as printed); M4T derived by comparing it with the table's wild-type CDR3 AGPMKTSYDKVI | 0 |
| […] (CDR3 as printed); K5I derived by comparing it with the table's wild-type CDR3 AGPMKTSYDKVI | 0 |
| […] (CDR3 as printed); K10T derived by comparing it with the table's wild-type CDR3 AGPMKTSYDKVI | 0 |
| […] (CDR3 as printed); T6I derived by comparing it with the table's wild-type CDR3 AGPMKTSYDKVI | 0 |
| […] (CDR3 as printed); I12N derived by comparing it with the table's wild-type CDR3 AGPMKTSYDKVI | 0 |
| […] (CDR3 as printed); G2Y derived by comparing it with the table's wild-type CDR3 AGPMKTSYDKVI | 0 |
| […] (CDR3 as printed); Y8F derived by comparing it with the table's wild-type CDR3 AGPMKTSYDKVI | 0 |
| […] (CDR3 as printed); I12Q derived by comparing it with the table's wild-type CDR3 AGPMKTSYDKVI | 0 |
| […] (CDR3 as printed); G2M derived by comparing it with the table's wild-type CDR3 AGPMKTSYDKVI | 0 |
| […] (CDR3 as printed); G2L derived by comparing it with the table's wild-type CDR3 AGPMKTSYDKVI | 0 |
| […] (CDR3 as printed); I12S derived by comparing it with the table's wild-type CDR3 AGPMKTSYDKVI | 0 |

| Variant | enrichment |
| --- | --- |
| […] (CDR3 as printed); Y8L derived by comparing it with the table's wild-type CDR3 AGPMKTSYDKVI | 0 |
| […] (CDR3 as printed); M4Y derived by comparing it with the table's wild-type CDR3 AGPMKTSYDKVI | 0 |
| […] (CDR3 as printed); V11Q derived by comparing it with the table's wild-type CDR3 AGPMKTSYDKVI | 0 |
| […] (CDR3 as printed); T6Y derived by comparing it with the table's wild-type CDR3 AGPMKTSYDKVI | 0 |
| […] (CDR3 as printed); M4P derived by comparing it with the table's wild-type CDR3 AGPMKTSYDKVI | 0 |
| […] (CDR3 as printed); Y8K derived by comparing it with the table's wild-type CDR3 AGPMKTSYDKVI | 0 |
| […] (CDR3 as printed); D9C derived by comparing it with the table's wild-type CDR3 AGPMKTSYDKVI | 0 |
| […] (CDR3 as printed); M4F derived by comparing it with the table's wild-type CDR3 AGPMKTSYDKVI | 0 |
| […] (CDR3 as printed); P3K derived by comparing it with the table's wild-type CDR3 AGPMKTSYDKVI | 0 |
| […] (CDR3 as printed); I12Y derived by comparing it with the table's wild-type CDR3 AGPMKTSYDKVI | 0 |
| […] (CDR3 as printed); Y8V derived by comparing it with the table's wild-type CDR3 AGPMKTSYDKVI | 0 |
| […] (CDR3 as printed); S7R derived by comparing it with the table's wild-type CDR3 AGPMKTSYDKVI | 0 |
| […] (CDR3 as printed); Y8R derived by comparing it with the table's wild-type CDR3 AGPMKTSYDKVI | 0 |
| […] (CDR3 as printed); I12A derived by comparing it with the table's wild-type CDR3 AGPMKTSYDKVI | 0 |
| […] (CDR3 as printed); D9S derived by comparing it with the table's wild-type CDR3 AGPMKTSYDKVI | 0 |
| […] (CDR3 as printed); V11I derived by comparing it with the table's wild-type CDR3 AGPMKTSYDKVI | 0 |
| […] (CDR3 as printed); G2P derived by comparing it with the table's wild-type CDR3 AGPMKTSYDKVI | 0 |
| […] (CDR3 as printed); M4C derived by comparing it with the table's wild-type CDR3 AGPMKTSYDKVI | 0 |
| […] (CDR3 as printed); A1D derived by comparing it with the table's wild-type CDR3 AGPMKTSYDKVI | 0 |
| […] (CDR3 as printed); G2N derived by comparing it with the table's wild-type CDR3 AGPMKTSYDKVI | 0 |
| […] (CDR3 as printed); P3Y derived by comparing it with the table's wild-type CDR3 AGPMKTSYDKVI | 0 |
| […] (CDR3 as printed); I12E derived by comparing it with the table's wild-type CDR3 AGPMKTSYDKVI | 0 |
| […] (CDR3 as printed); M4K derived by comparing it with the table's wild-type CDR3 AGPMKTSYDKVI | 0 |

| Variant | enrichment |
| --- | --- |
| […] (CDR3 as printed); G2I derived by comparing it with the table's wild-type CDR3 AGPMKTSYDKVI | 0 |
| […] (CDR3 as printed); D9M derived by comparing it with the table's wild-type CDR3 AGPMKTSYDKVI | 0 |
| […] (CDR3 as printed); S7I derived by comparing it with the table's wild-type CDR3 AGPMKTSYDKVI | 0 |
| […] (CDR3 as printed); G2E derived by comparing it with the table's wild-type CDR3 AGPMKTSYDKVI | 0 |
| […] (CDR3 as printed); D9N derived by comparing it with the table's wild-type CDR3 AGPMKTSYDKVI | 0 |
| […] (CDR3 as printed); K5S derived by comparing it with the table's wild-type CDR3 AGPMKTSYDKVI | 0 |
| […] (CDR3 as printed); K10C derived by comparing it with the table's wild-type CDR3 AGPMKTSYDKVI | 0 |
| […] (CDR3 as printed); A1Q derived by comparing it with the table's wild-type CDR3 AGPMKTSYDKVI | 0 |
| […] (CDR3 as printed); T6H derived by comparing it with the table's wild-type CDR3 AGPMKTSYDKVI | 0 |
| […] (CDR3 as printed); V11C derived by comparing it with the table's wild-type CDR3 AGPMKTSYDKVI | 0 |
| […] (CDR3 as printed); D9E derived by comparing it with the table's wild-type CDR3 AGPMKTSYDKVI | 0 |
| […] (CDR3 as printed); P3S derived by comparing it with the table's wild-type CDR3 AGPMKTSYDKVI | 0 |
| […] (CDR3 as printed); P3R derived by comparing it with the table's wild-type CDR3 AGPMKTSYDKVI | 0 |
| […] (CDR3 as printed); T6S derived by comparing it with the table's wild-type CDR3 AGPMKTSYDKVI | 0 |
| […] (CDR3 as printed); K10Q derived by comparing it with the table's wild-type CDR3 AGPMKTSYDKVI | 0 |
| […] (CDR3 as printed); I12W derived by comparing it with the table's wild-type CDR3 AGPMKTSYDKVI | 0 |
| […] (CDR3 as printed); G2W derived by comparing it with the table's wild-type CDR3 AGPMKTSYDKVI | 0 |
| […] (CDR3 as printed); K5E derived by comparing it with the table's wild-type CDR3 AGPMKTSYDKVI | 0 |
| […] (CDR3 as printed); A1H derived by comparing it with the table's wild-type CDR3 AGPMKTSYDKVI | 0 |
| […] (CDR3 as printed); I12C derived by comparing it with the table's wild-type CDR3 AGPMKTSYDKVI | 0 |
| […] (CDR3 as printed); S7P derived by comparing it with the table's wild-type CDR3 AGPMKTSYDKVI | 0 |
| […] (CDR3 as printed); I12G derived by comparing it with the table's wild-type CDR3 AGPMKTSYDKVI | 0 |
| […] (CDR3 as printed); Y8G derived by comparing it with the table's wild-type CDR3 AGPMKTSYDKVI | 0 |
